The text below walks through data of the supplement of paper PMC12042874.

The data set in a line: amyloid nucleation score (Sup35N fusion, yeast selection) (log enrichment); library NNK2; higher = more nucleation; inactive = no reads after selection. An outline of the steps: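 Plasmid inserts were Illumina-sequenced at input and output from psi-negative yeast expressing Sup35N fused to peptides of 20 random codons. The yeast were induced with 100 μM copper sulfate for 24 hours and grown 7 days at 30°C on medium lacking adenine and uracil, and sequences with under 100 input reads were excluded. Nucleation score is the DiMSum log enrichment of output over input reads, centred on the mode score of non-aggregating sequences.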

± gives the uncertainty stated by the source.

In the case of VTGNKEVMKIRCWVAHEESD, the amyloid nucleation score was 1.32 ± 0.37.
VFCINAFRALQTYCCWMYF came in with an amyloid nucleation score of 1.91 ± 0.087.
Under GDYHSYGVVRSYFCATPSSG stands 0.64 ± 0.44; under HNWLSMVQYH, -0.344 ± 0.76; under SVSETLWYDYIFKFVISVAN, -1.03 ± 0.63.
In turn, VINTEVCIEGGRQVRPAPRL had an amyloid nucleation score of 1 ± 0.41.
Under VYWCLITFNHEDAHSYCFL stands 2.22 ± 0.26; under SFFMEDQCTRPLVWEVRVFN, 0.049 ± 1.1.
LAKHTGRAGKRCKDMP displayed an amyloid nucleation score of -0.069 ± 0.31.
The figure for CPSYSTMSTGFVERVLPTGR is 1.53 ± 0.39.
For CIGSRRGQSTSSVYRWSHYL, the amyloid nucleation score was 0.192 ± 0.46.
The figure for TWRHSPCLVRTEFERKLTRL is 0.039 ± 0.49; for YTRSAGGLISL it is -0.774 ± 1.1.
In the case of FPIAVVKRALDLAVNGLESD, the amyloid nucleation score stood at 0.021 ± 0.44.
Regarding SDLVLKSLFDVVARRL, the amyloid nucleation score is -0.072 ± 0.35.
Turning to NPTYYRARGE, the amyloid nucleation score was determined as 2.96 ± 0.11.
The figure for ISSYEVELDALIVWGDTSSG is 0.006 ± 0.49; for WYYFYLFDACLSVSCWAIWY it is -0.283 ± 1.
The figure for ALNDAGYT is -0.656 ± 0.27.
For YMRMIYCMFRGNCWVVIVEA, the amyloid nucleation score amounted to 0.216 ± 0.49.
Under RMLCSHINYLIVGMG stands -0.061 ± 0.28; under FLDKCVRSSIENYWV, -0.074 ± 1.1; under LSTCCVKVVVCRDFIIVDKF, 6.57 ± 0.039.
As to IDVGYIYGMVCWQTG, the amyloid nucleation score came to 4.08 ± 0.083.
As for WGRLGARCYRRILVPGRCLE, the amyloid nucleation score is -0.756 ± 0.48.
Under IWTTYFMGLRT stands -0.394 ± 0.78.
Take RFYGVY: the amyloid nucleation score result was “inactive”.
HKCGTPFAIHIYRSKQLPGV showed an amyloid nucleation score of -0.305 ± 1.
Substance GIKYRSQCGCASDVCIKCRS had an amyloid nucleation score of -0.054 ± 1.1.
The entry for EAFYLSFFN is “inactive”.
Under LSHEFMIEW stands -0.19 ± 0.62; under LSVCLHHHNIAWDRCSGR, -0.469 ± 0.37; under CTTYPAFLSSGNPNFIMRFL, -0.148 ± 0.51.
Under ERYVCKGC stands “inactive”; under DVFGRGLMKEMGFVNFTLYY, “inactive”; under GVPYFLRW, -1.32 ± 0.48.
The substance FGDVQKPVRMLFVFSFWLLG came in with an amyloid nucleation score of -0.392 ± 0.79.
IRVFSDGAFKTEFTTKATLL: the amyloid nucleation score was determined as 0.328 ± 0.65.
The figure for CTRSFVTQSDEDSPIGSDR is -1.39 ± 0.38; for FCYAYTFMHEYLRGC it is 0.737 ± 0.3; for SVKLHSGGSWLRTWDWPRVC it is 1.55 ± 0.21.
The figure for WLYDPSIMWNIGWVSNMMHQ is -0.454 ± 0.24; for KPFFEKFVSTLGLWFEQLKS it is -0.574 ± 0.42; for YDHDLINRKITSGHKVYFIG it is -0.586 ± 0.49.
The figure for NLDGCTVIS is 0.774 ± 0.51; for RIHFGFRMMMCRDIRIFTSQ it is 6.06 ± 0.064.
On to WSRADDRQWGPRLDNVVVMV, for which the amyloid nucleation score was 0.83 ± 0.45.
The figure for LKLYDKAR is 0.213 ± 0.55; for TCSFMMCLPTRLARIIDPWM it is -0.322 ± 0.49; for LFNLKMSPSQRKNGLPVLTI it is “inactive”.
TKLLP showed an amyloid nucleation score of -0.149 ± 0.55.
The figure for YYMTRVSPFQSFIVIMGASQ is 1.89 ± 0.24; for LFVYWV it is 0.126 ± 0.38; for TGVIAYVRKVGDLSSCVYSC it is 3.6 ± 0.14.
With LYCQFSYVRCKPGKRSDLGW, the amyloid nucleation score was 1.88 ± 0.23.
Under SAFIVNCNLINAQERDFKSD stands 6.682 ± 0.034; under YCALWTTTE, 1.62 ± 0.18; under GHNATNVGHIMFFITTWCCY, 8.955 ± 0.047.
The figure for YCIKLRRYQNDKFWFNYTQV is 4.35 ± 0.086; for RPYNPFPLCILRWRPELL it is “inactive”.
IFYHHLSWTEFRCGRTFLSV yielded an amyloid nucleation score of 0.196 ± 0.42.
On to VESIKGVSCLYMFSYVMLLQ, for which the amyloid nucleation score was -0.021 ± 0.37.
The figure for YNTISDWTSLEPYTLVRVLL is 1.91 ± 0.064; for VTCCVTSEWVGFLDWWSDRQ it is 10.13 ± 0.043.
Take RLDNIIVAERCTSLRESRFG: the amyloid nucleation score is -0.047 ± 1.1.
As for SNGFGCAEVSGYYVSN, the amyloid nucleation score is -0.691 ± 0.79.
The substance MNDLMYVVLSRCSMIGNCGS came in with an amyloid nucleation score of 1.29 ± 0.17.
VMCFNTMKC: the amyloid nucleation score came to 7.386 ± 0.044.
The figure for GRKISNCCQCWCHGL is 7.72 ± 0.042; for CFGISSS it is -1.12 ± 0.36; for NHLIV it is -1.09 ± 0.3.
In the case of SRTYATRLQLM, the amyloid nucleation score was determined as 0.007 ± 0.76.
Under GNTGCGVRACSGVCGKMDLV stands 0.8 ± 0.27.
On to YAFRSYMKFIYFCSDFFSDR, for which the amyloid nucleation score is -2.32 ± 0.75.
Consider DVPLCLYCMYLSSFRVVIWM, for which the amyloid nucleation score is 2.35 ± 0.1.
Under RVSESLPSTD stands -0.219 ± 0.47; under HFIGVD, -0.156 ± 0.28.
On to SYFGSAHKVAEAHL, for which the amyloid nucleation score was determined as 0.377 ± 0.45.
Under RYWTSIGCGR stands 0.589 ± 0.32.
The figure for SVCYGSSIWN is -0.083 ± 0.39; for FRLAVFSEFQCFR it is 1.9 ± 0.12; for FGKYDGTYRSPVGYGFMWS it is 0.397 ± 0.41.
IVLSDSISQAFWASICHQGF yielded an amyloid nucleation score of -1.55 ± 1.1.
VYATFPSTIYLMLVFMESGV: the amyloid nucleation score result was “inactive”.
In the case of KIWHLSQYCAVFSLVFKGLN, the amyloid nucleation score is 2.41 ± 0.15.
The figure for LRSGGLFRDIMCRRDYVRCF is 1.23 ± 0.32; for PDRVLLYKLTVRRFTGCDWG it is 2.32 ± 0.17; for VLLQNYAMVAFT it is -1.07 ± 0.45.
Under RSIRCVYKF stands -0.465 ± 0.29; under DFLWTFVGNFLE, -1.43 ± 0.78; under LMPDSCSNPRWKTEVLTIRG, -0.199 ± 1.1.
The figure for YMTVSRVHISRVCCVYTLNV is 5.44 ± 0.064.
CNYVQIMLS returned an amyloid nucleation score of 2.81 ± 0.056.
Under DGRADFYSCVCLYYSWNGY stands 3.62 ± 0.037; under RRRRSGLCRAYVNVLNARTR, 0.79 ± 0.41; under CWLAMN, -0.166 ± 0.8.
In turn, TCYTTSVRNSTS yielded an amyloid nucleation score of 0.082 ± 0.36.
Substance KKSRNPHGKFTWTFGFVKKL returned an amyloid nucleation score of -1.76 ± 1.1.
For SVGYWTVDSVTSVATPLFLA, the amyloid nucleation score is 0.331 ± 0.35.
VDVLLFRDYLNYSNLITHKV: the amyloid nucleation score was -1.21 ± 0.54.
The figure for PRLYTPILYCLLTRCKVYTT is 3.41 ± 0.051; for DIAKLLCYILCFNGKSRRWG it is 0.127 ± 0.55.
The figure for SYSYDRVRKDTELARRNRAV is 0.436 ± 0.44; for CSGSLHERQYVRYDEVRRVG it is -0.031 ± 0.55; for VYFMCLWGFI it is -0.453 ± 1.1.
Under FNVDKRPRSDVCLAGCISD stands -0.825 ± 0.56; under ASYRKWNTCPIMYEVSCRYY, “inactive”; under GISCYMAPSGCRHNSVMSLW, 0.611 ± 0.5.
In the case of IPQEYPSDSMDVVMYISTLV, the amyloid nucleation score is -0.016 ± 0.79.
The figure for AFWVLTVPLGSWYCACYCYS is -0.662 ± 0.39.
Substance SADRECCQHEFGASPRLRVG had an amyloid nucleation score of 4.907 ± 0.041.
With THTLRGLQANRMISNNMDTI, the amyloid nucleation score is -0.402 ± 0.61.
Under LTEVVMAILFSDDSRYIFCG stands 1.41 ± 0.16.
Regarding QFNKIDWMHKMFTSSRVNMS, the amyloid nucleation score was -0.166 ± 0.31.
Under DTRLIGECQLGSGVTVLSLG stands 0.252 ± 0.27; under SSVMPAVIAFACCCNKSTFA, -0.237 ± 0.38.
Under KSLYIGSAY stands 1 ± 0.42; under VWLALEWVLGWSTMR, 1.73 ± 0.19; under RLRTKCYFNCCNGHYLEFGG, 9.489 ± 0.067.
Under GGDLNHHFAWTTNKMHDERR stands 4.537 ± 0.038; under SFNVYRASGVKVRQWAFHGG, 0.076 ± 0.61.
Take YYNSATPTDDGWWKISG: the amyloid nucleation score was -0.574 ± 1.
For LNQNPLFTN, the amyloid nucleation score is -0.11 ± 0.76.
Under CVLDNGGTYNFRLRRMDHLI stands -0.707 ± 0.79; under TFAIIQYRNCLVTPISFKHF, 6.5 ± 0.081; under LMLTCKLSFPGLVNLSCSPI, -0.84 ± 0.34.
Under GCSVKFIFNHKSGYYIYLLF stands -0.822 ± 0.54.
Under CNPVAV stands 0.8 ± 0.66.
IVGHRVLACVRPRRVVTRYG displayed an amyloid nucleation score of 0.118 ± 0.63.
The figure for RPAFTNLRQCQRAYPVGGRC is 0.195 ± 0.53.
Under SALNYSFFLL stands -0.27 ± 1.1; under NGIQGL, “inactive”; under RFFCLWFSWKNLGFNVKRAV, 5.02 ± 0.082.
Under SPWKTFMQVLWDTWVARVCL stands 0.515 ± 0.28; under QLESRRDDHRVHESADGSA, 0.466 ± 0.33; under RTVLATYMTPRSTPKSDYPR, -0.734 ± 0.48.
KRVGTYEVKI: the amyloid nucleation score is -0.253 ± 0.55.
Substance KYEIRAASARGGSNVCFCIG registered an amyloid nucleation score of 0.691 ± 0.19.
Turning to YILAFVILAMEAWHRV, the amyloid nucleation score is 3.68 ± 0.086.
FGLDYVTYVRWAGVCHLLYF displayed an amyloid nucleation score of -0.56 ± 0.55.
